Experimental data reported in article PMC6640674.

Target: BPSL1626 (Burkholderia pseudomallei strain K96423) (UniProt Q63UH6)
Test: crystal structure

With “BPSL1626 (from UniProt Q63UH6 26-176) (natural protein)” the stoichiometry N was 2.
